Experimental data as given in article PMC9482650, “Quantitative fragmentomics allow affinity mapping of interactomes” (Nature Communications, 2022).

B1: CGN, Q9P2M7 (peptide)
chain: TESNLQTSSC

The binders below were run against T1, SNTA1, Q13424 (assay: holdup assay). Settings: plain residues with an end cap or a label only (N-terminal biotin on a linker: ahx).
T1 sequence (Q13424 82-180, limits assumed, looked up): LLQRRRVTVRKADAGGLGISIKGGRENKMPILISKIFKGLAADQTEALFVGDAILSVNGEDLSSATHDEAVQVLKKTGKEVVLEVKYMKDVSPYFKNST
Parameters: key: below the threshold = too weak to quantify, mostly under pKd 3.1 to 4
B1 was tested, and the pKd was “below the threshold”.

What follows are binders tested against GRIP2_4, Q9C0E4 (assay: holdup assay). Settings: plain residues with an end cap or a label only (N-terminal biotin on a linker: ahx).
GRIP2_4, Q9C0E4, sequence (Q9C0E4 446-548): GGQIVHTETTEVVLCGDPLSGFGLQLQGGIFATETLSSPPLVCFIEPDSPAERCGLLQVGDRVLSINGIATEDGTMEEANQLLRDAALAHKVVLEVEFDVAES
Parameters: key: below the threshold = too weak to quantify, mostly under pKd 3.1 to 4
For B1, the pKd was “below the threshold”.

The binders below were run against T2, RHPN1, Q8TCX5 (assay: holdup assay). Settings: plain residues with an end cap or a label only (N-terminal biotin on a linker: ahx).
T2 sequence (Q8TCX5 508-602, limits assumed, looked up): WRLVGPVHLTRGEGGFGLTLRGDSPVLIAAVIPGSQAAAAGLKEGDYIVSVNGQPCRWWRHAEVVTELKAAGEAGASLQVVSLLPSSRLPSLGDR
Parameters: key: below the threshold = too weak to quantify, mostly under pKd 3.1 to 4
For B1, the pKd was 4.44.

These binders were tested against T3, CARD11, Q9BXL7 (assay: holdup assay). Settings: plain residues with an end cap or a label only (N-terminal biotin on a linker: ahx).
T3 sequence (Q9BXL7 662-765, limits assumed, looked up): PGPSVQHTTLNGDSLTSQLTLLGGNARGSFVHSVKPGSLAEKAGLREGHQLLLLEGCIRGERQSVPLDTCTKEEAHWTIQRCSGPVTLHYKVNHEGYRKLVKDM
Parameters: key: below the threshold = too weak to quantify, mostly under pKd 3.1 to 4
In the case of B1, the pKd is reported as “below the threshold”.

These binders were tested against MAGI1_1, Q96QZ7 (assay: holdup assay). Settings: plain residues with an end cap or a label only (N-terminal biotin on a linker: ahx).
MAGI1_1, Q96QZ7, sequence (Q96QZ7 1-106): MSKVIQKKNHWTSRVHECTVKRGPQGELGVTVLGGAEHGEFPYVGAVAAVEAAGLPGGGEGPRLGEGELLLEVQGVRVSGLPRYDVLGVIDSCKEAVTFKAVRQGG
Parameters: key: below the threshold = too weak to quantify, mostly under pKd 3.1 to 4
B1 was tested, and the pKd was “below the threshold”.

What follows are binders tested against MAGI2_6, Q86UL8 (assay: holdup assay). Settings: plain residues with an end cap or a label only (N-terminal biotin on a linker: ahx).
MAGI2_6, Q86UL8, sequence (Q86UL8 1141-1229): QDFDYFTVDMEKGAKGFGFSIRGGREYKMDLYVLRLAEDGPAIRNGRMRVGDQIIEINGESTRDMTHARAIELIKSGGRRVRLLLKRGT
Parameters: key: below the threshold = too weak to quantify, mostly under pKd 3.1 to 4
B1 was tested, and the pKd was “below the threshold”.

What follows are binders tested against T4, MPP7, Q5T2T1 (assay: holdup assay). Settings: plain residues with an end cap or a label only (N-terminal biotin on a linker: ahx).
T4 sequence (Q5T2T1 134-230, limits assumed, looked up): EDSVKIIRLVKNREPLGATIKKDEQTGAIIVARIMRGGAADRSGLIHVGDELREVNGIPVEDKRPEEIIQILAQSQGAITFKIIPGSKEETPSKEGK
Parameters: key: below the threshold = too weak to quantify, mostly under pKd 3.1 to 4
With B1 the pKd was “below the threshold”.

Each binder was assayed against T5, FRMPD1, Q5SYB0 (assay: holdup assay). Settings: plain residues with an end cap or a label only (N-terminal biotin on a linker: ahx).
T5 sequence (Q5SYB0 52-145, limits assumed, looked up): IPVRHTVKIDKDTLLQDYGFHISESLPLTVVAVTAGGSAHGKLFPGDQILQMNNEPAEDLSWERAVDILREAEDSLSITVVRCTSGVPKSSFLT
Parameters: key: below the threshold = too weak to quantify, mostly under pKd 3.1 to 4
In the case of B1, the pKd is reported as “below the threshold”.

The binders below were run against TJP1_2, Q07157 (assay: holdup assay). Settings: plain residues with an end cap or a label only (N-terminal biotin on a linker: ahx).
TJP1_2, Q07157, sequence (Q07157 181-274): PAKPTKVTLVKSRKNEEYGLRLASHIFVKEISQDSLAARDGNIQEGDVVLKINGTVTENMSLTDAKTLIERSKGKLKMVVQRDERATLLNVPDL
Parameters: key: below the threshold = too weak to quantify, mostly under pKd 3.1 to 4
B1 was tested, and the pKd was “below the threshold”.

These binders were tested against T6, MPP6, Q9NZW5 (assay: holdup assay). Settings: plain residues with an end cap or a label only (N-terminal biotin on a linker: ahx).
T6 sequence (Q9NZW5 125-219, limits assumed, looked up): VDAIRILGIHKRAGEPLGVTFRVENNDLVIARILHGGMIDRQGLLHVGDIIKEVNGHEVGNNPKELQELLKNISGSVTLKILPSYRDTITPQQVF
Parameters: key: below the threshold = too weak to quantify, mostly under pKd 3.1 to 4
B1 was tested, and the pKd was “below the threshold”.

What follows are binders tested against CASK, O14936 (assay: holdup assay). Settings: plain residues with an end cap or a label only (N-terminal biotin on a linker: ahx).
CASK, O14936, sequence (O14936 487-570): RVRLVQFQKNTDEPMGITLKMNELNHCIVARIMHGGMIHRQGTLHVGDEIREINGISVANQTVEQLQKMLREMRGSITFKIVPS
Parameters: key: below the threshold = too weak to quantify, mostly under pKd 3.1 to 4
In the case of B1, the pKd is reported as “below the threshold”.

These binders were tested against T7, APBA2_1, Q99767 (assay: holdup assay). Settings: plain residues with an end cap or a label only (N-terminal biotin on a linker: ahx).
T7 sequence (Q99767 563-664, limits assumed, looked up): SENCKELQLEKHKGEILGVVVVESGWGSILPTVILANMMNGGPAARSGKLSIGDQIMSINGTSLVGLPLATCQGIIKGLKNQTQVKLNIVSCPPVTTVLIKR
Parameters: key: below the threshold = too weak to quantify, mostly under pKd 3.1 to 4
With B1 the pKd was “below the threshold”.

What follows are binders tested against T8, SNTG1, Q9NSN8 (assay: holdup assay). Settings: plain residues with an end cap or a label only (N-terminal biotin on a linker: ahx).
T8 sequence (Q9NSN8 52-150, limits assumed, looked up): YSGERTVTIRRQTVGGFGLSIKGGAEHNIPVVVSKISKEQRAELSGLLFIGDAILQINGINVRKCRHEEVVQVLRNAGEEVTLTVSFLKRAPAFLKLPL
Parameters: key: below the threshold = too weak to quantify, mostly under pKd 3.1 to 4
For B1, the pKd was “below the threshold”.

Each binder was assayed against T9, NHERF3_4, Q5T2W1 (assay: holdup assay). Settings: plain residues with an end cap or a label only (N-terminal biotin on a linker: ahx).
T9 sequence (Q5T2W1 373-468, limits assumed, looked up): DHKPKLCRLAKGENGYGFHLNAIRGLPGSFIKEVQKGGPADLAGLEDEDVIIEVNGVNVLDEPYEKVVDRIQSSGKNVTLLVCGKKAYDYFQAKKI
Parameters: key: below the threshold = too weak to quantify, mostly under pKd 3.1 to 4
B1 was tested, and the pKd was “below the threshold”.

These binders were tested against T10, HTRA3, P83110 (assay: holdup assay). Settings: plain residues with an end cap or a label only (N-terminal biotin on a linker: ahx).
T10 sequence (P83110 354-453, limits assumed, looked up): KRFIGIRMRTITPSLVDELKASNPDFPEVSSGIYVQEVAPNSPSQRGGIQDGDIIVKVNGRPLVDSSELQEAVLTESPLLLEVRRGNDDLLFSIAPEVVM
Parameters: key: below the threshold = too weak to quantify, mostly under pKd 3.1 to 4
For B1, the pKd was “below the threshold”.

The binders below were run against GRIP2_7, Q9C0E4 (assay: holdup assay). Settings: plain residues with an end cap or a label only (N-terminal biotin on a linker: ahx).
GRIP2_7, Q9C0E4, sequence (Q9C0E4 934-1023): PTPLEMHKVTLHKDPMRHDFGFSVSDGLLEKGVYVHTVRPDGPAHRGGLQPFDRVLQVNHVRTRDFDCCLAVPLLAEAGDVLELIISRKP
Parameters: key: below the threshold = too weak to quantify, mostly under pKd 3.1 to 4
In the case of B1, the pKd is reported as “below the threshold”.

These binders were tested against T11, TX1BP3, O14907 (assay: holdup assay). Settings: plain residues with an end cap or a label only (N-terminal biotin on a linker: ahx).
T11 sequence (O14907 10-122, limits assumed, looked up): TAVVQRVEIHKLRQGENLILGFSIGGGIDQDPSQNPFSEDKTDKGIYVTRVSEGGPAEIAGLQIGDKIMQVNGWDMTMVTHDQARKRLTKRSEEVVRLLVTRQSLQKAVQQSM
Parameters: key: below the threshold = too weak to quantify, mostly under pKd 3.1 to 4
For B1, the pKd was “below the threshold”.

What follows are binders tested against T12, PDZD7_3, Q9H5P4 (assay: holdup assay). Settings: plain residues with an end cap or a label only (N-terminal biotin on a linker: ahx).
T12 sequence (Q9H5P4 857-944, limits assumed, looked up): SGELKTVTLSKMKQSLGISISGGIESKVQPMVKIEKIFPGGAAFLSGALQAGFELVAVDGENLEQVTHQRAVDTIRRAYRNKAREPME
Parameters: key: below the threshold = too weak to quantify, mostly under pKd 3.1 to 4
With B1 the pKd was “below the threshold”.

What follows are binders tested against FRMPD2_1, Q68DX3 (assay: holdup assay). Settings: plain residues with an end cap or a label only (N-terminal biotin on a linker: ahx).
FRMPD2_1, Q68DX3, sequence (Q68DX3 770-861): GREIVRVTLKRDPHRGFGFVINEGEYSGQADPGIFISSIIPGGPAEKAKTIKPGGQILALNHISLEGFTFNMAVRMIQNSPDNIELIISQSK
Parameters: key: below the threshold = too weak to quantify, mostly under pKd 3.1 to 4
B1 was tested, and the pKd was “below the threshold”.

These binders were tested against T13, ARHGEF11, O15085 (assay: holdup assay). Settings: plain residues with an end cap or a label only (N-terminal biotin on a linker: ahx).
T13 sequence (O15085 42-136, limits assumed, looked up): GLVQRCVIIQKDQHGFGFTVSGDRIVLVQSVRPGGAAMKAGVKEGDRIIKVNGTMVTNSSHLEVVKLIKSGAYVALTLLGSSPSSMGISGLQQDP
Parameters: key: below the threshold = too weak to quantify, mostly under pKd 3.1 to 4
B1 was tested, and the pKd was “below the threshold”.

The binders below were run against T14, APBA3_1, O96018 (assay: holdup assay). Settings: plain residues with an end cap or a label only (N-terminal biotin on a linker: ahx).
T14 sequence (O96018 389-490, limits assumed, looked up): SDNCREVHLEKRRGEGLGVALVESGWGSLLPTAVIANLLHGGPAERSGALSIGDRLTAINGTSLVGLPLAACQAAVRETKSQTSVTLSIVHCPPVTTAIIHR
Parameters: key: below the threshold = too weak to quantify, mostly under pKd 3.1 to 4
With B1 the pKd was “below the threshold”.

These binders were tested against T15, TJP3_3, O95049 (assay: holdup assay). Settings: plain residues with an end cap or a label only (N-terminal biotin on a linker: ahx).
T15 sequence (O95049 375-456, limits assumed, looked up): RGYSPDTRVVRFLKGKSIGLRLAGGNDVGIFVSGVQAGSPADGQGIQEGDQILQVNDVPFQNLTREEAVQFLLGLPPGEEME
Parameters: key: below the threshold = too weak to quantify, mostly under pKd 3.1 to 4
B1 was tested, and the pKd was “below the threshold”.
